Assay results as given in US20260085129A1 (ECO ANIMAL HEALTH, published 2026).

Columns and labels:
[1] = molecular target: T1, huCD6-pPST2-His (human, UniProt P30203 18-402); experiment: P.E. binding ELISA, antigen coated at 1 ug/ml, anti-c-Myc detection
T1 construct: composition read from the name; not shown: His tag
Description: (§1) For P.E. binding ELISA, MaxiSorp™ high protein-binding capacity 96 well ELISA plates, were coated with 1 μg/ml of pCD163-SRCR-FL-PST2-His or huCD6-pPST2-His, or pCD163-SRCR1-9-huFc protein, diluted in PBS, overnight at 4° C. The next day, plates were washed 3× with PBS Tween 0.05% (pH 7.4) and blocked for 1 hour at room temperature with 250 μl/well of 4% Marvel/PBS. After blocking, plates were washed 3× with PBS Tween 0.05% (pH7.4) and incubated per well with 20 μl of P.E+80 μl in 1% Marvel/PBS (pH7.4), for 1 hour at room temperature (RT) with shaking. Plates were washed 3× with PBS Tween 0.05% (pH7.4) and incubated with 100 μl of anti-c-Myc antibody (Roche; Cat. nr. 11667203001) followed by secondary antibody DAM-HRP (JIR; Cat. nr. 715-035-150) in 1% Marvel/PBS (pH7.4), for 1 hour at RT with shaking. Plates were washed 3× with PBS Tween 0.05% (pH7.4) and the substrate solution (TMB solution) was added to the plates. Reaction was stopped with H2SO4 and plates read in the plate reader at 450 nm.

[2] = molecular target: T2, pCD163-SRCR1-9-huFc (porcine, UniProt Q2VL90 51-1028); experiment: as above
T2 construct: Limits 51-1028 are those the description gives for CD163-SRCR1-9; also called porcine CD163 SRCR1 to SRCR9 (no PST2) with human Fc; soluble CD163; not shown: human Fc (huFc)
T2 sequence: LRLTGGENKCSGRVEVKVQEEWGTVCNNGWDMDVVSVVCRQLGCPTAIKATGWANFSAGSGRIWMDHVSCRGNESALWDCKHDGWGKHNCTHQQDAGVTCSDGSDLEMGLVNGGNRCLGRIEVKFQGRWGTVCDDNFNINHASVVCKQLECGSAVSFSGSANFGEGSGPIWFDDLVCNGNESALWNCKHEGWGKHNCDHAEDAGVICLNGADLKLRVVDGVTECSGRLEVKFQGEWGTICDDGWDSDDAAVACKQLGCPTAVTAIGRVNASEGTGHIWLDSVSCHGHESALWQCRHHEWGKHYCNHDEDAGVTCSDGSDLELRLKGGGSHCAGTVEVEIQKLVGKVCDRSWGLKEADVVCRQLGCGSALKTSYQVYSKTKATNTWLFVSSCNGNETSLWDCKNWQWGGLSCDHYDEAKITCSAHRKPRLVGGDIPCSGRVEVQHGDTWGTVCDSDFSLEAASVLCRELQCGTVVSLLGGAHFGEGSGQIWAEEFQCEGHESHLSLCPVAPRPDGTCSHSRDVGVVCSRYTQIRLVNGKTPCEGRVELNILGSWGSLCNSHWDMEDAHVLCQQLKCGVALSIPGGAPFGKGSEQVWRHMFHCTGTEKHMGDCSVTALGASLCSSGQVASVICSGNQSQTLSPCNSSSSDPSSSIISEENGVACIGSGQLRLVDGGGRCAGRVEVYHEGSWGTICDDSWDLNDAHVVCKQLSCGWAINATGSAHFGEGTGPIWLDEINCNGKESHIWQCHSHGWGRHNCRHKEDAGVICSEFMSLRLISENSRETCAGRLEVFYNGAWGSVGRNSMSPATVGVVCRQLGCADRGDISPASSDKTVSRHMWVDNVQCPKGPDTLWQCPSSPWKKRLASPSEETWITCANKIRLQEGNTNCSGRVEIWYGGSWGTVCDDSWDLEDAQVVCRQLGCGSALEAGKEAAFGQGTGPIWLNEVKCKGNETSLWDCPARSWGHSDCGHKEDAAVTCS
Description: as §1

[3] = molecular target: T3, pCD163-SRCR-FL-PST2-His (porcine, UniProt Q2VL90 51-1044); experiment: as above
T3 construct: also called pCD163-1-PST2-His; pCD163-SRCR1-PST2; not shown: His tag
T3 sequence: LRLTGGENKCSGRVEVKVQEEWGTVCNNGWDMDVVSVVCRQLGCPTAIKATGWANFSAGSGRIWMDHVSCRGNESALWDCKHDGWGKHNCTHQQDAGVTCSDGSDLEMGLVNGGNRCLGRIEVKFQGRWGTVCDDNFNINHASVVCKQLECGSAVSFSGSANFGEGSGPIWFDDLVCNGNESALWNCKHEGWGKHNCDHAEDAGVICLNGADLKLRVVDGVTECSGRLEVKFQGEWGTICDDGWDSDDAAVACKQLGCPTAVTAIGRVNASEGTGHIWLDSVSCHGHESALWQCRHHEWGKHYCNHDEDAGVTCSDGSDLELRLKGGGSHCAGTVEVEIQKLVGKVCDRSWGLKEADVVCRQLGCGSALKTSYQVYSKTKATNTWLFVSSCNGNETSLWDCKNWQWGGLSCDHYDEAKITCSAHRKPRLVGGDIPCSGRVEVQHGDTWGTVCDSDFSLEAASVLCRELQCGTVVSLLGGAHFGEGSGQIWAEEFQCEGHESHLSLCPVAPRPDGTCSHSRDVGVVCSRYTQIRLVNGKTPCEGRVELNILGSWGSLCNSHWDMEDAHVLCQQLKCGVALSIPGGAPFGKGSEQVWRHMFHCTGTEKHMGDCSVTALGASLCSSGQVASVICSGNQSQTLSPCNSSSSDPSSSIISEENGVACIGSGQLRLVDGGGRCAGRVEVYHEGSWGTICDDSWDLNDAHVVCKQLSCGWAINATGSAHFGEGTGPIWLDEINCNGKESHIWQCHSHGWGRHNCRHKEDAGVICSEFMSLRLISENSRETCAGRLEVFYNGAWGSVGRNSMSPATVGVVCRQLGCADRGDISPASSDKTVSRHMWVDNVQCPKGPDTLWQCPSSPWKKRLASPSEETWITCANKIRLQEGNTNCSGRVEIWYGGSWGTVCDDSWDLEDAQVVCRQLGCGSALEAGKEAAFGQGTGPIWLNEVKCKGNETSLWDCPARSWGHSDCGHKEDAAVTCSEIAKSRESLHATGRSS
Description: as §1

[4] = molecular target: T2, pCD163-SRCR1-9-huFc; experiment: Biacore 3000 SPR, antigen amine-coupled on CM5 chip, pH 7.4

T1 sequence (P30203 whole entry): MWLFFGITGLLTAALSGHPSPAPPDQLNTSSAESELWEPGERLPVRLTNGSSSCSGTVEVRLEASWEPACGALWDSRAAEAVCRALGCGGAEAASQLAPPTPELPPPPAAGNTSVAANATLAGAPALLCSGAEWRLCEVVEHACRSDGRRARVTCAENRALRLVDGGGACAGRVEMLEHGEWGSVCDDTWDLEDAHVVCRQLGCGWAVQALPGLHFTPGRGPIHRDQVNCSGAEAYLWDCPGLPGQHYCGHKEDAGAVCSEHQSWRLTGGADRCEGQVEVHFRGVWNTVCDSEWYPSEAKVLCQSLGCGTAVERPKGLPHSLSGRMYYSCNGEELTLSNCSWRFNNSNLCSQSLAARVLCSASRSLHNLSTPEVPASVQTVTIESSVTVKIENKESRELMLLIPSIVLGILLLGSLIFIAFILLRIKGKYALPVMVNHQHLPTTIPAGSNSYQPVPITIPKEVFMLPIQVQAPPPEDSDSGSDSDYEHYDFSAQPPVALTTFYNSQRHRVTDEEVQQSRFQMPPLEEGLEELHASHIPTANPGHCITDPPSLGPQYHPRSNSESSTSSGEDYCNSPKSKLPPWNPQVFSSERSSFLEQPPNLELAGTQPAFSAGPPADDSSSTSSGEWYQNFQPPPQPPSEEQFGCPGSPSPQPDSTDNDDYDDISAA

B1: Clone 39-H17B11 VHH antibody (VHH)
VHH: QVQLVESGGGLVQAGGSLRLSCAASGRTFSSYAMGWFRQTPGKDREFVARIGWTGGTTIYADSVKGRFTISRDNAKNTVYLQMNSLKPEDTAVYYCAADQAGWRTAGVRNTYEYDYWGQGTQVTVSS
notes: Llama single domain antibody; also called clone 17B11; not shown: tags: c-myc tag on the soluble VHH in periplasmic extracts; FLAG and His tags on the purified VHH
O.D. 450 nm [1]: 0.052 O.D. 450 nm
O.D. 450 nm [2]: 0.091 O.D. 450 nm
O.D. 450 nm [3]: 0.066 O.D. 450 nm
binding result [4]: no binding (tested: 200 nM (highest VHH concentration))
